Target: human neonatal Fc receptor (FcRn) (human) (UniProt P55899)
Assay: SPR (Biacore T200), FcRn amine-coupled to CM5 chip, antibody as analyte, steady state fit, pH 6.0

human neonatal Fc receptor (FcRn) (human), sequence (P55899 24-297 limits assumed, chain 1 of 2): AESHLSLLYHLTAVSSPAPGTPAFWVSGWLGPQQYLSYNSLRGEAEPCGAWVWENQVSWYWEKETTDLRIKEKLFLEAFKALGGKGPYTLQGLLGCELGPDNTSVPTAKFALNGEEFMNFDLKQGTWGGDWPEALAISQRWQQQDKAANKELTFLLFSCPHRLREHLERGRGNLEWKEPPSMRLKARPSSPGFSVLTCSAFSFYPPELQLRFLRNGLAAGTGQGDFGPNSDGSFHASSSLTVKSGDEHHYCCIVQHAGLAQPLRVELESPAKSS
human neonatal Fc receptor (FcRn) (human), sequence (P61769 21-119 limits assumed, chain 2 of 2, further chain): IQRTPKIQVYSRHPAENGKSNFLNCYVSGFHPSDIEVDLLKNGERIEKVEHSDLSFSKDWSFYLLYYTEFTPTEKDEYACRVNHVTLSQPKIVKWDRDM

Substance	Kd [nM]
Irrelevant IgG1 (antibody)	2370
Irrelevant IgG4 (antibody)	3250
